Two proteins from publication PMC3260166, “HspB2/Myotonic Dystrophy Protein Kinase Binding Protein (MKBP) as a Novel Molecular Chaperone: Structural and Functional Aspects” (PLoS ONE, 2012) can be followed below.

Data set [1] concerns the molecule itself. The data set can be described thus: AUC; sedimentation velocity, 0.125, 1 and 3 mg/ml HspB2 in TNE buffer (50 mM Tris HCl pH 7.4, 1 mM EDTA, 100 mM NaCl), 40,000 rpm, 20°C, interference optics, SEDFIT.
Data set [2] concerns the molecule itself. The data set can be described thus: FRET or BRET; subunit exchange: AIAS- and LYI-labelled HspB2 mixed in equimolar ratios in 20 mM HEPES pH 7.4, 100 mM NaCl, at 37°C or 20°C; excitation 332 nm. For orientation: BRET reads energy transfer from a luciferase to a nearby fluorophore.

B1: human HspB2 / Myotonic Dystrophy Protein Kinase Binding Protein (MKBP) (natural protein, UniProt Q16082 1-182, looked up)
chain: MSGRSVPHAHPATAEYEFANPSRLGEQRFGEGLLPEEILTPTLYHGYYVRPRAAPAGEGSRAGASELRLSEGKFQAFLDVSHFTPDEVTVRTVDNLLEVSARHPQRLDRHGFVSREFCRTYVLPADVDPWRVRAALSHDGILNLEAPRGGRHLDTEVNEVYISLLPAPPDPEEEEEAAIVEP
notes: HspB2 (MKBP), human; The reverse primer carries the stop codon (TCA), so the C-terminal His tag of pET21a is probably not translated; also called MKBP/HspB2; source: E. coli BL21 DE3, purified (20% ammonium sulfate precipitation, Phenyl Sepharose)
For the protein B1, the binding result in data set [1] is recorded as “binds”.

B2: human HspB2 labelled at its sole cysteine (Cys118) with AIAS or LYI (natural protein, UniProt Q16082 1-182, looked up)
chain: B1 chain
modifications: cysteine at 118 covalently labelled with AIAS (4-acetamido-4'-((iodoacetyl)amino)stilbene-2,2'-disulfonic acid; donor copy) or with Lucifer Yellow Iodoacetamide (LYI; acceptor copy)
notes: HspB2 (MKBP), human; the same recombinant protein as m1, labelled at the sole cysteine residue (118th position); Two differently labelled copies of the same protein (AIAS donor, LYI acceptor) mixed in equimolar ratio for FRET; also called AIAS-labeled HspB2; LYI-labeled HspB2; source: E. coli BL21 DE3, purified, then labelled with AIAS or LYI and desalted (PD10)
B2: the binding result in data set [2] is listed as “binds”.
